Patent publication US20220073609A1 (DENALI THERAPEUTICS, published 2022)
Where a chain is given by its changes, count along the chain named. No end group written: not given here.

T1: Mouse TREM2 peptide (aa 149-163) (mouse, UniProt Q99NH8 149-163, also: biotinylated)
T1 construct: range 149-163; also called truncated stalk peptide, mouse
T1 peptide (looked up): SFEGAQVEHSTSRNQ

T2: Human TREM2 peptide (aa 149-163) (human, also: biotinylated)
T2 construct: also called truncated stalk peptide containing the ADAM10/17 cleavage site
T2 peptide: SFEDAHVEHSISRSL

T3: recombinant cynomolgus TREM2 ECD (cynomolgus, UniProt A0A2K5UY34 49-204)
T3 construct: extracellular domain; also called cyno TREM2
T3 sequence: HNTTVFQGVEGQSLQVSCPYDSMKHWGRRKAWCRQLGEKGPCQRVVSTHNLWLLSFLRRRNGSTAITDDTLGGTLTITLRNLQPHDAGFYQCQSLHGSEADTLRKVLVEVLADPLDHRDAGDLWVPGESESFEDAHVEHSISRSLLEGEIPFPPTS

T4: sTREM2 in cynomolgus CSF (cynomolgus monkey, UniProt A0A2K5UY34 49-187)
T4 construct: domain: soluble TREM2 (sTREM2); also called soluble TREM2 in healthy cynomolgus monkey CSF
T4 sequence: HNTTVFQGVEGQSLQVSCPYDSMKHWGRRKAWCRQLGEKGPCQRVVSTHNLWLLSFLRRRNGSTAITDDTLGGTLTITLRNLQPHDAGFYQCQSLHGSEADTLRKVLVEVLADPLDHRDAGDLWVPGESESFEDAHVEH

B1: Reference antibody #3 (antibody, V domains shown)
VH: QVQLVQSGAEVKKPGASVKVSCKASGYAFSSQWMNWVRQAPGQRLEWIGRIYPGGGDTNYAGKFQGRVTITADTSASTAYMELSSLRSEDTAVYYCARLLRNQPGESYAMDYWGQGTLVTVSS
VL: DVVMTQSPDSLAVSLGERATINCRSSQSLVHSNRYTYLHWYQQKPGQSPKLLIYKVSNRFSGVPDRFSGSGSGTDFTLKISRVEAEDVGVYYCSQSTRVPYTFGQGTKLEIK
notes: also called AL2p-58 (WO 2019/028292)
B2: CL0020188-7 (antibody, V domains shown)
VH: EVQLVESGGGLVQPGGSLRLSCAASGFTFTDFYMSWVRQAPGKGLEWVSVIRNKANAYTAGYNPSVKGRFTISRDNSKNTLYLQMNSLRAEDTAVYYCARLTYGFDYWGQGTLVTVSS
VL: DIVMTQTPLSLPVTPGEPASISCQSSKSLLHSTGKTYLNWYLQKPGQSPQLLIYWMSTRASGVPDRFSGSGSGTDFTLKISRVEAEDVGVYYCQQFLEYPFTFGQGTKVEIK
notes: Humanized variant of CL0020188
B3: CL0020188-4 (antibody, V domains shown)
VH: B2 VH with A24G, L45P, V48L, A57G
VL: B2 VL
notes: as for B2
B4: CL0020123-5 (antibody, V domains shown)
VH: QVQLVQSGAEVKKPGASVKVSCKASGFSIEDFYIHWVRQAPGQGLEWMGWIDPEQGESKYAPKFQGRATITADTSTSTAYMELSSLRSEDTAVYYCHADHGNYGSTMDYWGQGTLVTVSS
VL: DIQMTQSPSSLSASVGDRVTITCHASQHINVWLSWYQQKPGKAPKLLIYKASNLHTGVPSRFSGSGSGTDFTLTISSLQPEDFATYYCQQGQTYPRTFGQGTKVEIK
notes: Humanized variant of CL0020123
B5: CL0020123 (antibody, V domains shown)
VH: EVQLQQSGAELVRSGASVKLSCTASGFSIEDFYIHWVKQRPEQGLEWIGWIDPENGDSKYAPKFQGKATMTADTSSNTAYLHLSSLTSEDTAVYYCHADHGNYGSTMDYWGQGTSVTVSS
VL: B4 VL with T5N, V15L, R18T, K42D, A43H, D70G, F83I, Q100G, V104L
notes: also called Clone CL0020123
B6: CL0020123-7 (antibody, V domains shown)
VH: B4 VH with Q55N, A68V
VL: B4 VL
notes: as for B4
B7: CL0020188 (antibody, V domains shown)
VH: EVKLLDSGGGLVQAGGSLRLSCAGSGFTFTDFYMSWIRQPPGKAPEWLGVIRNKANGYTAGYNPSVKGRFTISRDNTQNILYLQMNTLRAEDTAIYYCARLTYGFDYWGQGVMVTVSS
VL: DIVMTQGALPNPVPSGESASITCQSSKSLLHSNGKTYLNWYLQRPGQSPQLLIYWMSTRASGVSDRFSGSGSGTDFTLKISSVEAEDVGVYYCQQFLEYPFTFGSGTKLEIK
notes: also called Clone CL0020188
B8: Reference antibody #1 (antibody, V domains shown)
VH: EVQLVQSGAEVKKPGESLKISCKGSGHSFTNYWIAWVRQMPGKGLEWMGIIYPGDSDTRYSPSFQGQVTISADKSISTAYLQWSSLKASDTAVYFCARQRTFYYDSSGYFDYWGQGTLVTVSS
VL: DIQMTQSPSSVSASVGDRVTITCRASQGISNWLAWYQQKPGKAPKLLIYAASSLQVGVPLRFSGSGSGTDFTLTISSLQPEDFATYYCQQADSFPRNFGQGTKLEIK
notes: also called 4C5 (WO 2018/195506)
B9: Reference antibody #2 (antibody, V domains shown)
VH: B8 VH with H27Y, N31S, V93M, G108D
VL: B8 VL with N31S, V56N, L60S, Y87F, N97T
notes: also called 6E7 (WO 2018/195506)

Tests used:
[1] = target: Mouse TREM2 peptide (aa 131-169) (mouse) (UniProt Q99NH8); test: ELISA, biotinylated stalk peptide on streptavidin plate, anti-human kappa-HRP detection
Mouse TREM2 peptide (aa 131-169) (mouse), sequence (Q99NH8 131-169 limits assumed, form in doubt): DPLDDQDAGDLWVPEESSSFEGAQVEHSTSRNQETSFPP

[2] = target: Human TREM2 peptide (aa 129-172) (human); test: as above
Human TREM2 peptide (aa 129-172) (human), sequence (peptide, as listed by the source): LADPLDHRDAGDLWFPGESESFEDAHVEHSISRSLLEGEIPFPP

[3] = target: T1, Mouse TREM2 peptide (aa 149-163); test: as above
Procedure: (§1) TREM2 antibodies were evaluated for binding to human and mouse TREM2 stalk region peptides. […] Antibody binding to TREM2 stalk peptides was detected using standard sandwich ELISA. Briefly, a 96-well half-area ELISA plate was coated with streptavidin overnight at 4° C. The following day, biotinylated TREM2 stalk peptides diluted in 1% BSA/PBS were added to the plate and incubated for 1 hour. Antibodies diluted in 1% BSA/PBS were then added and incubated for 1 hour. Antibodies bound to peptide were detected with anti-human kappa-HRP secondary antibody (Bethyl Laboratories, Inc.) diluted in 1% BSA/PBS. Plates were assayed by reaction with a detection reagent (One-step TMB Ultra, Thermo) and measurement of absorbance at 450 nm (A450) by standard spectrophotometry instrumentation (BioTek®). Data are shown as normalized values (fold over background where background=isotype control).

[4] = target: T2, Human TREM2 peptide (aa 149-163); test: as above
Procedure: as §1

[5] = target: T3, recombinant cynomolgus TREM2 ECD; test: SPR (Biacore), cynomolgus TREM2
Procedure: (§2) Surface plasmon resonance (Biacore™ 8K instrument) was used to measure anti-TREM2 antibody affinities for human and cynomolgus TREM2 ECD. Anti-TREM2 antibodies were captured using Human Fab Capture Kit (GE Healthcare Life Sciences, Catalog No. 28958325) on a Biacore Series S CM5 sensor chip (GE Healthcare Life Sciences, Catalog No. 29149604). Serial 3-fold dilutions of recombinant human or cynomolgus TREM2 were injected at a flow rate of 30 μL/min. Antibody binding was monitored for 300 seconds, followed by monitoring of antibody dissociation for 600+ seconds in HBS-EP+ running buffer (GE Healthcare Life Sciences, Catalog No. BR100669). The binding response was corrected by subtracting the RU value from a blank flow cell. A 1:1 Languir model of simultaneous fitting of kₒₙ, and koff was used for kinetics analysis.
(§3) The affinity of anti-TREM2 antibodies to human TREM2 and cynomolgus TREM2 were measured by Biacore (described in Example 1). The potency of anti-TREM2 antibodies were measured in healthy human volunteer CSF samples (Innovative Research) and healthy cynomolgus monkey CSF samples (Worldwide Primates), by MSD assay. The potency of each antibody was determined by its EC50. Briefly, MSD GOLD 96-well small spot streptavidin plates (MSD, Cat. No. L45SA) coated with capture antibody (biotinylated goat anti-human TREM2, R&D Systems, Cat. No. BAF1828) was incubated with biofluid samples diluted 1:3 in Assay Buffer (25% (v/v) MSD Blocker A (MSD, Cat. No. R93BA-A), 75% (v/v) TBST) for one hour at room temperature. After rinsing the wells with TBST, sulfo-tagged anti-TREM2 antibody was added in a serial dilution (4× dilution over 11 points) to the wells of the plate and incubated for one hour at room temperature. The wells were washed with TBST, and MSD Read Buffer (MSD, Cat. No. R92TC-3) was added to the wells. Signal from the samples were measured using an MSD Meso Sector 5600 device. EC50 values for each antibody was determined by four-parameter variable slope non-linear regression. Reference antibodies #1 and #2 correspond to 4C5 and 6E7 described in WO 2018/195506. Reference antibody #3 corresponds to AL2p-58 described in WO 2019/028292. The variable regions of reference antibody #1 are represented by SEQ ID NOS:73 and 74.

[6] = target: T4, sTREM2 in cynomolgus CSF; test: MSD assay, sTREM2 from CSF captured by biotinylated goat anti-human TREM2, sulfo-tagged test antibody titrated
Procedure: as §3, with “74. The variable regions of reference antibody #2 are represented by SEQ ID NOS:75 and 76. The variable regions of reference antibody #3 are represented by SEQ ID NOS:77 and 78.” for “74.”

[7] = target: T3, recombinant cynomolgus TREM2 ECD; test: SPR (Biacore 8K), antibody captured with Human Fab Capture Kit, recombinant TREM2 ECD injected, 1:1 fit
Procedure: as §2

Row | Molecule | A450 fold over background (background = isotype control) [3] [fold] | Kd [5] [nM] | EC50 [6] [nM] | other results
1 | Isotype control (antibody) | 1 |  |  | A450 fold over background (background = isotype control) [1]: 1 fold; A450 fold over background (background = isotype control) [2]: 1 fold; A450 fold over background (background = isotype control) [4]: 1 fold
2 | B1 |  | 9.2 | 33.7 | 
3 | B2 |  | 2.8 | 0.72 | 
4 | B3 |  | 1.5 | 0.28 | 
5 | B4 |  | 9.3 | 49.4 | 
6 | B5 | 0.9 |  |  | Kd [7]: 5.7 nM
7 | B6 |  | 9.4 | 16.9 | 
8 | B7 | 0.9 |  |  | Kd [7]: 2 nM; A450 fold over background (background = isotype control) [4]: 3 fold
9 | B8 |  | 14 | 81.6 | 
10 | B9 |  | 9.2 | 6.5 | 
